Assay [1] has as its target Superoxide reductase Sor (CD0827, desulfoferrodoxin) of Clostridioides difficile (Clostridioides difficile). As to the kind of experiment: SEC; Superdex S200 10/300 GL, 20 mM Tris-HCl pH 7.5, 150 mM NaCl, no glycerol; mass read against protein standards. For orientation: Size exclusion chromatography separates by hydrodynamic size, large species first.
The target in assay [2] is Rubrerythrin Rbr (CD0825) of Clostridioides difficile (Clostridioides difficile). The experiment in a line: SEC; Superdex S200 10/300 GL, 20 mM Tris-HCl pH 7.5, 18% glycerol, 150 mM NaCl; mass read against protein standards.
Assay [3] concerns the target CD0828 of Clostridioides difficile (annotated as a glutamate synthase, with an N-terminal rubredoxin-like domain) (Clostridioides difficile). The experiment in a line: SEC; Superdex S200 10/300 GL, 20 mM Tris-HCl pH 7.5, 18% glycerol, 150 mM NaCl; mass read against a second set of standards (ovalbumin, conalbumin, aldolase, ferritin, thyroglobulin).

Values joined by “and” are separate entries in the source; they are usually repeats but may differ in a detail not shown here. Equal entries are not always repeated.

In general, stoichiometry N refers to a count of units in the complex or per binding partner. Turning to “Superoxide reductase Sor (CD0827, desulfoferrodoxin) of Clostridioides difficile (enzyme)”, the stoichiometry N in assay [1] was 2 and 4.
As to “Rubrerythrin Rbr (CD0825) of Clostridioides difficile (enzyme)”, the stoichiometry N in assay [2] came to 4.
As for “CD0828 of Clostridioides difficile (annotated as a glutamate synthase, with an N-terminal rubredoxin-like domain) (natural protein)”, the stoichiometry N in assay [3] was found to be 2.
